The record followed here is the nanobody polyreactivity screen of Harvey et al. (2022).

A short description of this data set: yeast display, Sf9 membrane polyspecificity reagent, FACS + sequencing; frameworks hold sequencing errors. An outline of the steps: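 Polyreactivity labels are assigned by the sorting gate from which each nanobody was recovered. The gates were low and high (top ~1%), set on anti-HA fluorescence for expression and streptavidin fluorescence for reagent binding. Before sorting, galactose-induced (36–48 hours) yeast display cells were stained for 1 hour at 4 °C with 10% biotinylated, detergent-solubilized Sf9 membrane reagent.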
“QVQLVESGGGLVQAGGSLRLSCAASGRIFADYAMGWYRQAPGKERELVADIRQSGGRTYYADSVKGRFTISRDNAKNTVYFQINRLKPEDTAVYYCATDYGSWGDYSGKYDYWGQGTQVTVSS”: the “polyreactivity (PSR sort gate)” value was “low polyreactivity”.
On to “QVQLVESGGGLVQAGGSLRLSCAASGLTFSRYAMGWYRQAPGKERELVAAITSIGGSTYYADSVKGRFTISRDNAKNTVYLQMNSLKPEDTAVYYCRAFFRRDYWGQGTQVNVSS”, for which the “polyreactivity (PSR sort gate)” value was “high polyreactivity”.
In the case of “QDQLVESGGGLVQAGGSLRLSFAASGSTFANYAMVWYRQAPGKEREWVAAISFSTVSTYYADSVKGRFTISRDNAKNTVYIQMNSLKPEDTAVYYCNTYYYGSRPSEDYWGQGTQVTVSS”, the “polyreactivity (PSR sort gate)” value is listed as “high polyreactivity”.
As for “QVQLEESGGGLVQAGGRLRLSCAASGSTCGTNVMGGARQAPGKERELVAAFSNGGSTNYADSVKGRFTISRDNAKITDYLQMNSLKPEDTAVYYCEFDYWGQGTQVTVSS”, the entry is “low polyreactivity”.
With “QVQLVESGGGLVQAGGSLRLSCAASGSIFKTYAMGWSRPAPGKERELVAAITSSGGSTYYADSVKGRFTISRDNAKNTVDLQMNSLKPEDTAVYDCAALSGQARRMYYWGQGTQVTVSS” the entry was “high polyreactivity”.
As to “QVQLVESGGGLVQAGGSLRLSCAASGFTFRKYAMGWYRQAPGKERELVASITSGGSTYYADSVKGRFTISRDNAKNTVYLQMNSLKPEDTAVYYCNAVKATLASGRLRGAYYYWGQGTQVTVSS”, the “polyreactivity (PSR sort gate)” value is listed as “high polyreactivity”.
As for “QVQLVESGGGLVQAGGSLRLSCAASGFTFRANGMGWYRQATGKERELVATITSGGTTNYADSVKGRFTISRDNAKNTVYLQMNSLKPEDTAVYYCAKRFGPAYFRLYDYWGQGTQVTVSS”, the “polyreactivity (PSR sort gate)” value is on record as “low polyreactivity”.
As to “QVQLVESGGGLVQAGGSLRLSCAASGRTLRYYDMGWYRQEPGKEREIVAAISWSGVSTYYADSVKGRFTISRDNAKNTVYLQMNSMQPEDTAVYYCAVGYVLTGVFEARFDYWGQGTLVTVSS”, the “polyreactivity (PSR sort gate)” value is recorded as “high polyreactivity”.
For the sequence “QVQLVESGGGLVQAGGSLRLSCAASGRNFGAYTMGWYRQAPGKESELVAAISSSGGRTYYADSVKGRYTISRDNAKNTVYLQMNSLKPEDTAVYYCAASYSGRKDRYPHYDYWGQGTQVTVSS”, the “polyreactivity (PSR sort gate)” value is on record as “low polyreactivity”.
As for “QVQLVESGGGLVQAGGSLRLSCAASGSTFGYYGMGWYRQAPGKERELVAAISASGGRTYYADSVKGRFTISRDNAKITVYLQMNSLKPEDTAVYYCAATVYAWRSTYGYWGQGTQVTVSS”, the entry is “high polyreactivity”.
With “QVQLVESGGGLVQAGGSLRLSCADSGSTIFGNAMGWYRQAPGKERELVAAISYSGDSTYYADSVKGRFTISRDNAMNTVYLQMNSLKPEDTAVYYCAAGFVIKYDFWGQGTQVTVSS”, the “polyreactivity (PSR sort gate)” value is “low polyreactivity”.
Consider “QVQLVESGGGLVQAGGSLRLSCAATGRIFYRNAMGWYRQAPGKERELVAAIRGSGGRTYYADSVKGRFTISRDNAKNTVYLQMNSLKPEDTAVYYCAAYGYYVEHPRGLSGPYDDDYWGQGTQVTVSS”, for which the “polyreactivity (PSR sort gate)” value is listed as “low polyreactivity”.
Turning to “QVQLVESGGGLVQAGGSLRLSCAASGSTFWFYAMRWYRQAPGKERELVAAITRSAGSTYYADSVKGRFTISRDNAKNTVYLQMNSLKPEDTAVYYCAAQRESLYGGFDYWGQGTQVTVSS”, the “polyreactivity (PSR sort gate)” value was “low polyreactivity”.
Turning to “QVQLVESGGGLVQAGGSLRLSCAASGYIFLANAMGWYRQAPGKERELVAAITSGGGGTYYADSVKGRFTISRDNAKNTVYLQMNSLKPEDTAVYYCAADHGRDGSSFEYWGQGTQVTVSS”, the “polyreactivity (PSR sort gate)” value was “low polyreactivity”.
“QVQLVESGGGLVQAGGSLRLSCAASGSTFSRYAMGWSRQAPGKERELVAVITGSGGSTYYADSVKGRFTISRDNAKNTVYLQMNSLKPEDTAVYYCNAVYFALSPQYYWAASDYWGQGTQVTVSS”: the “polyreactivity (PSR sort gate)” value is listed as “high polyreactivity”.
As for “QVQLVESGGGLVQAGGSLRLSCAASGRTFYYAMGWYRQAPGKERELVASITWSGGITTYADSVKGRFTISRDNAKNTVYLQLNSLKPEDTAVYYCAAQVIKGRTYQLGDYWGQGTQVTVSS”, the “polyreactivity (PSR sort gate)” value is “high polyreactivity”.
Take “QVQLVESGGGLVQAGGSLRLSCAASGRTLPKYVLGWYRQSPGKERELVAAISSSGDSTYYADSVNGRFTISRDNAKNTVYLQMNILKPEDTAVYYCDKYDRNTYGYWGQGTQVTVST”: the “polyreactivity (PSR sort gate)” value is “low polyreactivity”.
“QVQLVESGGGLVQAGGSLRLSCAASGFTFGAYARGWYRQAPGKERELVAAISSRGGSTYYADSVKGRFTISRDNAKNTVYLQKNSLKPEDTAVYYCAANSYRRTGYNYWGQGTQVSVSS”: the “polyreactivity (PSR sort gate)” value is “high polyreactivity”.
As for “QVQIVESGGGLVQAGGSLRLSCAASGRTFIGNVMGWYRQAPGKERELVAAISKSGTRTYYADSVKGRFTISRDNAKNTFYLQMNSLKPEDTAVYYCAKDHYPRTDDFGYWGQGTQVTVSS”, the “polyreactivity (PSR sort gate)” value is reported as “high polyreactivity”.
With “QVQLVESGGGLVQAGGSLRLSCAASGITFGVYGMGWYRQAPGKERELVAAISRTGGSTYYADSVKGRFTISRDNAKNTVYLQMNSLKPEDTAVYYCAADRYRRVAKHGYWGQGTQVTVSS”, the “polyreactivity (PSR sort gate)” value is given as “high polyreactivity”.
In the case of “QVHLLESGGGLVKAGGILRLSCAASGYIFPRYAMGSYRQSPGKDRELVAAITSGGSTYYADSVKGRFTISRDNAKNTVYLQMNSLKPEDTAVYYCIDPYHGREYEWGQGTQVTVSS”, the “polyreactivity (PSR sort gate)” value is reported as “high polyreactivity”.
As for “QVQLVESGGGLVQAGGSLRLSCAASGLIFESYAMGWYRQAPRKERELFAAITRSGARTYYADSVKGRFSISRDNAKNTVYLQMNILKPEDTAVYYCAAAPWYFFDQYFNGISFGYYYWGQGTQLTVSS”, the “polyreactivity (PSR sort gate)” value is listed as “high polyreactivity”.
Consider “QVQLVESGGGLVQAGGRLRLSCAASGRTFFGYAMGWYRQAPGKERELVAAITSSGGRTYYADSVKGRFTISRDNAKNTVYLQMNSLKPEDTAVYYCNTVLSFRSVNIYRGRGDYWGQGTQVTVSS”, for which the “polyreactivity (PSR sort gate)” value was “high polyreactivity”.
Turning to “QVQLVESGGGLVQAGGSLRLSCAASGFIFYDYDMGWYRQAPGKERELVAAITYSGGSTYYADSVKGRFTISRDNAKNTVYLQMNSLKPEDTAVYYCAAVKSRYAEAVDYYYWGQGTQVTVSS”, the “polyreactivity (PSR sort gate)” value is “low polyreactivity”.
“QVQLVESGGGLVQAGGSLRLSCAASGSIIPGYTMGWYRQAPGKERELVAAISRRGGSTYYADSVKGRFTISRDNAKNTVYLQMNSLKPEDTAVYYCAASLWYRISKYDYWGQGTQVTVSS”: the “polyreactivity (PSR sort gate)” value was “high polyreactivity”.
With “QVQLVESGGGLVQAGGSLRLSCAASGSIFGIYAMGWYRQAPGKERELVAAIRRGGSTYYADSVKGRFTISRDNAKNTVYLQMNSLKPEDTAVYYCAGRKYRLWGKGVDYDFCGQGTQVTVSS” the entry was “high polyreactivity”.
In the case of “QVQLVESGGGLFQAGGTLRLSCAATGITFRWYAMGWYRQAPGKEMELVAAITYRGGSTHYSDSVKGRFTISRDNAKNTVYLQMNSLKPEDTAVYYCAVRRWPRYRWSDYWGQGTQVTLSS”, the “polyreactivity (PSR sort gate)” value was “low polyreactivity”.
For the sequence “QVQLVESGGGLVQAGGSLRLSCAASGSTFEYNAMGGYRQAPGKERELVASSTNYADSVKGRFTISRDNAKNTVYLQMNSLKPEDTAVYYCAREQGVNRNHDYWGQGTQVTVSS”, the “polyreactivity (PSR sort gate)” value is “low polyreactivity”.
Regarding “QLQLVETGGGLVQAGGSLRLSCAASGRIYYGYAMGWYRPAPGKERELVAAISWSGGSTYYADSVKGRFTISRDNAKNTVYLQMNSLKPEDTAVYYCARDAPYLYRAFDYWGQGTQVTVSS”, the “polyreactivity (PSR sort gate)” value is reported as “high polyreactivity”.
Regarding “QVQLGESGGGLVQAGGSLRLICAASGRIFYRNAMGWYRQAPGKERELVAGISNRGGSTYYADSVKGRFTISRDNAKNTVYLQMNSLKPEDTAVYYCATVPFSPPSAGPEYDYWGQGTQVTVSS”, the “polyreactivity (PSR sort gate)” value is given as “high polyreactivity”.
Turning to “QVHLVESGRGLVQAGGSLSVTCSASGFTFYWYTMGWYRRAPGKERELVAAISRRGGSTSYADSVKGRFTISRDNAKNTVYLKMKILKPDDTAVYYCAKTPGWTDYDYWGQGTQVTVSS”, the “polyreactivity (PSR sort gate)” value is “high polyreactivity”.
Consider “QVQLVESGGGLVQAGGILRLSCASSGRTFAWYAMGWYRPAPGKERELVAAITTRGSGTYYADSVKGRFTISRDNAKNTVYLQMNSLKPEDTAVYYGAKDPITATTLDERVYYWGQGTQLTVSS”, for which the “polyreactivity (PSR sort gate)” value was “low polyreactivity”.
Consider “QVQLVESGGGLVQAGGSLRLSCAASGSIFIYAMGWYRQAPGKERELVATISWSGTSTYADSVKGRFTISRDNAKNTVYLQMNSLKPEDTAVYYCNKLKRTYYSSGYPHDYWGQGTQVTVSS”, for which the “polyreactivity (PSR sort gate)” value is given as “low polyreactivity”.
With “QVQLVESGGGLVQAGGSLRLSCADSGFTFRYNAMGWYRQAPGKERELVAAISRSGGRTYYADSVKGRFTISRDNAKNTVYLQMNSLKPEDSAVYYCAAVAARITGYGYWGQGTQVTVSS” the entry was “high polyreactivity”; with “QVQLVESGGGLVQAGGSLRLSCAASGSTFFSNAMGWYRQAPGKERELVATIRVGGGSTYADSVKGRFTISRDNAKNTVYLQMNSLKPEDTADYYCAADDSDTRYTRSRYGYWGQGTQVTVSS”, “low polyreactivity”; with “QVQLVESGGGLVQAGGSLRLSCASSGNTFVDYAMGWFRQAPGKETELVAAISDGGSTNYADSVKGRFTISRDNAKNTVDLQMNSLKPEDTEVYYCAKDELYIPGVWPYYEYDYWGQGTQVTVSS”, “low polyreactivity”.
Regarding “QVQLQESGGGLVKAGGSLRLSCAASGNISNHNDMGWYRQAPGKESEFVAGITAGGITNYADSVKGRFTISRDNAKNTVYLQMNSLKPEDTAVYYCAAYPDYAKSYGYWGQGTQATVSS”, the “polyreactivity (PSR sort gate)” value is on record as “low polyreactivity”.
Consider “QVQLVESGGGLVQAGGSLRLSCAASGRIFFNYAMGWYIQAPGKERELVARITGSGGRTYYADSVKGRFTISRDNAKNTVYLQMNSLKPEDTAVYYCNKVPGYKYDSWGQGTQVTVSS”, for which the “polyreactivity (PSR sort gate)” value was “high polyreactivity”.
As for “QVQLVESGGGLVQAGGSLRLSCADSGSIFEFNTMGWYRQAPGKERELVAAISSADTTNYADSVKGRFTISRDNAKNTVYLQMNSLKPEDTAVYYCNKELHLSATLRVLGFDYWGQGTQVTVSS”, the entry is “low polyreactivity”; as for “QVQLVESVGGLVQAGGSLRLSCAASGSTSYDYAMGWNRQAPGKERELVAAISGSSSTTYYADSVKGRFTISRDNAKNTVYLQMNSLKPEDTAVYYCNAVTTSGSGYGYWGQGTQVTVSS”, “low polyreactivity”.
Consider “QVQRVESGGGLVQAGGSHRLSCAASGRIFSLNAMGWYRQAPGKERELVAAITTTGGTTYYADSVKGRFTISRDKAKNTVYLQMNSLKPEDTAVYYCAADYAPYNYLAYYFSGWLEYWGQGTQVTVSS”, for which the “polyreactivity (PSR sort gate)” value is “low polyreactivity”.
